Source: US20030232009A1
Where a chain is given by its changes, count along the chain named.

B1: antibody in the supernatant of B cell culture well 250F2 (antibody, V domains shown)
VH: QVQLVESGGDLVKPGGSLRLSCAASGFSFSGYYLSWIRQAPGKGLEWVSYISLSGSFIKYADSVKGRFTISRDNAKKTLHLQMNSLRAEDTAVYYCARRTGTTTVFDYWGQGTLVTVSS
VL: EVVMTQSPATLSVSPGERATLSCRASQSVNSNLAWYQQRPGQAPRLLIYGASTRVTGIPARFSGSGSGTEFTLTISSLQSEDFAVYYCQQYNNWPLTFGGGTKVEIK
B2: antibody in the supernatant of B cell culture well 283B2 (antibody, V domains shown)
VH: QVQLVESGGGLVKPGGSLRLSCAASGFTFNVYYMNWIRQAPGKGLEWVSYISTSSSAIYYADSVKGRFTISRDNAKNSLYLQMNSLRAEDTAVYYCARRTGSTTVFDYWGQGTLVTVSS
VL: B1 VL with V2I, M4L, V29I, S31N, R39K, V55A, R61K, D82N, N93K
B3: antibody in the supernatant of B cell culture well 170B8 (antibody, V domains shown)
VH: AVQLLESGGGLIQPGGSLRLSCAASGFTFSSYAMSWVRQAPGKGLEWVSAISGSGGSTFYADSVRGRFTISRDNSKNTLYLQMNSLRVEDTAVYYCAKEVMGPIFFDYWGQGTLVTVSS
VL: EIVLTQSPGTLSLSPGERATLSCRASQSIISSALAWYQQKPGQAPRLLIYGASSRATGIPDRFSGSGSGTDFTLTISRLEPEDFAVYHCQQYGSTPLTFGGGTKVEIK

Each binder was assayed against Human 20.2 + 18mer (assay: ELISA, well supernatant on coated peptides).

Row | ELISA reading | Binder
1 | 0.4 | B1
2 | 0.5 | B2
3 | 1.7 | B3
